Laboratory results as given in WO2007076336A1.

Molecular target: Human CGRP (Example 4, isoform not stated) (human) (UniProt P80511)
Assay: cell-based or functional assay

Chain of UniProt P80511 (P80511 2-92 limits assumed): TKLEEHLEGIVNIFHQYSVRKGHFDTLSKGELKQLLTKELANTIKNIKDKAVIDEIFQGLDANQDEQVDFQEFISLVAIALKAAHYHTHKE

IC50, inhibition of CGRP-induced cAMP in SK-N-MC cells (HTRF): 10.1 nM
Substance: monoclonal antibody C7113 (Sigma-Aldrich, St. Louis, MO)
